This passage reports Kd results from publication PMC7307906, “Macrocyclic Modalities Combining Peptide Epitopes and Natural Product Fragments” (Journal of the American Chemical Society, 2020).

In this assay the target is T1, SPSB2 (Homo sapiens, UniProt Q99619).
T1 chain: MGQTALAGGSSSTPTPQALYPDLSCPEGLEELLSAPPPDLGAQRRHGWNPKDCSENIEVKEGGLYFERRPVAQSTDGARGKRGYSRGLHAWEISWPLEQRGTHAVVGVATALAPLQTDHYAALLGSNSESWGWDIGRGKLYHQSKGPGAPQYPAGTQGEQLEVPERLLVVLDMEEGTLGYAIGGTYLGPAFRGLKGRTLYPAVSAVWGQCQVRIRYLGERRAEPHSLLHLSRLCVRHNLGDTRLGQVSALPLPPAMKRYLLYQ
Kind of assay: SPR. In general terms: SPR reads the build-up and loss of mass on a sensor chip optically.

Bridges are numbered along the chain shown (N, C = ends). Where no end group is shown, it is not given here. [ ]: non-standard residue; d: D form. pyrrolidinyl‑spirobarbiturate (VII) = not defined here; N‑phenyl fused di‑pyrrolidine (II) = not defined here; N‑methyl fused di‑pyrrolidine (I) = not defined here; NMeF = CN[C@@H](Cc1ccccc1)C(=O)O; NMeL = CN[C@@H](CC(C)C)C(=O)O

B1: cyclic peptide 24 (peptide)
chain: CVDINNNC
modifications: disulfide 1-8 (inferred)
As usually defined, the Kd is a measure of binding affinity in units of concentration. A high value points to a looser complex. B1 displayed a Kd of 16 nM. This counts as double-digit nanomolar.

B2: PepNat D7-major (peptide)
chain: [NMeF]DINNNKG-NH2
modifications: bridge (positions not given here) via pyrrolidinyl‑spirobarbiturate (VII); reading uncertain; also: macrocycle via pyrrolidinyl-spirobarbiturate (VII)
Molecule B2 gave a Kd of 3.8 nM.

B3: iNOS peptide 23 (peptide)
chain: Ac-DINNN
Regarding B3, the Kd was 237 nM.

B4: PepNat D12-major (peptide)
chain: [NMeL]DINNNKG-NH2
modifications: bridge (positions not given here) via N‑methyl fused di‑pyrrolidine (I); reading uncertain; also: macrocycle via N-methyl fused di-pyrrolidine (I)
Consider B4, for which the Kd is 10 nM.

B5: PepNat D2-major (peptide)
chain: [NMeF]DINNNKG-NH2
modifications: bridge (positions not given here) via N‑phenyl fused di‑pyrrolidine (II); reading uncertain; also: macrocycle via N-phenyl fused di-pyrrolidine (II)
Molecule B5 registered a Kd of 231 nM.
